Changes are numbered by the printed parent chain.
B1: cr199 (nucleic acid)
guide: GTTTAAGAGCTAAGCTGGAAACAGCATAGCAAGTTTAAATAAGGCTAGTCCGTTATCAACTTGAGAAAGTGGCACCTAGTAGGTGCT
modifications: listed as DNA, chemistry not fully specified
B2: cr341 (nucleic acid)
guide: B1 guide with G44T, C50A, G65A, G72C, C73T, T77G, A81C, G85A, C86G
modifications: listed as DNA, chemistry not fully specified
B3: cr443 (nucleic acid)
guide: B1 guide with T16G, G65A, T77G, A81C
modifications: listed as DNA, chemistry not fully specified
B4: cr219 (nucleic acid)
guide: B1 guide with G44C, C50G, T77G, A81C
modifications: listed as DNA, chemistry not fully specified
B5: cr805 (nucleic acid)
guide: B1 guide with A42G, G65T, T77G, A81C
modifications: listed as DNA, chemistry not fully specified
B6: cr887 (nucleic acid)
guide: B1 guide with A31C, A47C, G63C, G65A, T77G, A81C
modifications: listed as DNA, chemistry not fully specified
B7: cr695 (nucleic acid)
guide: B1 guide with T53A, A55G, A64T, G65A, T77G, A81C
modifications: listed as DNA, chemistry not fully specified
B8: cr742 (nucleic acid)
guide: B1 guide with C45A, G48T, T62C, G65A, A67G, T77G, A81C
modifications: listed as DNA, chemistry not fully specified
B9: cr819 (nucleic acid)
guide: B1 guide with A28C, A47G, T53G, G65A, T77G, A81C
modifications: listed as DNA, chemistry not fully specified
B10: cr886 (nucleic acid)
guide: B1 guide with C60A, T62A, G65A, A67T, G69T, C75G, T77G, A81C, G83C
modifications: listed as DNA, chemistry not fully specified
B11: cr852 (nucleic acid)
guide: B1 guide with C60G, T61A, T62A, G63A, G65A, A67T, G69C, T77G, A81C
modifications: listed as DNA, chemistry not fully specified
B12: cr449 (nucleic acid)
guide: B1 guide with G44C, C50G, G65A, C75G, T77G, A81C, G83C
modifications: listed as DNA, chemistry not fully specified
B13: cr859 (nucleic acid)
guide: B1 guide with G29C, A47T, T77G, A81C
modifications: listed as DNA, chemistry not fully specified
B14: cr635 (nucleic acid)
guide: B1 guide with G65A, T77G, A78G, A81C
modifications: listed as DNA, chemistry not fully specified
B15: cr508 (nucleic acid)
guide: B1 guide with T46C, T54G, G65A, T77G, T80C, A81C
modifications: listed as DNA, chemistry not fully specified
B16: cr550 (nucleic acid)
guide: B1 guide with G65A, C76A, T77A, A81T, G82T
modifications: listed as DNA, chemistry not fully specified
B17: cr278 (nucleic acid)
guide: B1 guide with T49C, G65A, T77G, G79A, A81C
modifications: listed as DNA, chemistry not fully specified
B18: cr119 (nucleic acid)
guide: B1 guide with G65A, G69T, T77G, A81C
modifications: listed as DNA, chemistry not fully specified
B19: cr684 (nucleic acid)
guide: B1 guide with G65A, C76T, T77A, A81T, G82A
modifications: listed as DNA, chemistry not fully specified
B20: cr426 (nucleic acid)
guide: B1 guide with G33A, T53C, G65A, T77G, A81C
modifications: listed as DNA, chemistry not fully specified
B21: cr558 (nucleic acid)
guide: B1 guide with G65A, A74T, C76G, T77G, A81C, G82C, T84A
modifications: listed as DNA, chemistry not fully specified
B22: cr168 (nucleic acid)
guide: B1 guide with G44A, C50T, C60A, G65A, G69T, T77G, A81C
modifications: listed as DNA, chemistry not fully specified
B23: cr477 (nucleic acid)
guide: B1 guide with T56C, G65A, T77G, A81C
modifications: listed as DNA, chemistry not fully specified
B24: cr594 (nucleic acid)
guide: B1 guide with A28T, A42G, T53C, G65A, T77G, A81C
modifications: listed as DNA, chemistry not fully specified
B25: cr875 (nucleic acid)
guide: B1 guide with A59C, T62G, G65A, A67C, T70G, T77C, A81G
modifications: listed as DNA, chemistry not fully specified
B26: cr763 (nucleic acid)
guide: B1 guide with T49C, G65A, T77G, A81C
modifications: listed as DNA, chemistry not fully specified
B27: cr505 (nucleic acid)
guide: B1 guide with A28T, A42G, G65A, T77G, G79T, A81C
modifications: listed as DNA, chemistry not fully specified
B28: cr890 (nucleic acid)
guide: B1 guide with G65A, T77G, A78C, A81C, T87C
modifications: listed as DNA, chemistry not fully specified
B29: cr380 (nucleic acid)
guide: B1 guide with C73T, T77G, A81C, G85A
modifications: listed as DNA, chemistry not fully specified
B30: cr457 (nucleic acid)
guide: B1 guide with G65A, T77G, A81C, G85T
modifications: listed as DNA, chemistry not fully specified
B31: cr439 (nucleic acid)
guide: B1 guide with T16A, G65A, T77G, A81C
modifications: listed as DNA, chemistry not fully specified
B32: cr568 (nucleic acid)
guide: B1 guide with A59T, T61G, G65A, A68C, T70A, C75A, T77G, A81C, G83T
modifications: listed as DNA, chemistry not fully specified
B33: cr555 (nucleic acid)
guide: B1 guide with G44T, C50A, G65A, T77G, A81C
modifications: listed as DNA, chemistry not fully specified
B34: cr723 (nucleic acid)
guide: B1 guide with T61C, G65A, A68G, C75G, T77G, A81C, G83C
modifications: listed as DNA, chemistry not fully specified
B35: cr645 (nucleic acid)
guide: B1 guide with G44C, C50G, T61G, G65A, A68C, C76G, T77G, A81C, G82C
modifications: listed as DNA, chemistry not fully specified
B36: cr474 (nucleic acid)
guide: B1 guide with G65A, A81C
modifications: listed as DNA, chemistry not fully specified
B37: cr836 (nucleic acid)
guide: B1 guide with C60T, G65A, T77G, A81C
modifications: listed as DNA, chemistry not fully specified
B38: cr164 (nucleic acid)
guide: B1 guide with G65A, A74C, T77G, A81C
modifications: listed as DNA, chemistry not fully specified
B39: cr867 (nucleic acid)
guide: B1 guide with C50T, G65A, T77G, A81C
modifications: listed as DNA, chemistry not fully specified
B40: cr779 (nucleic acid)
guide: B1 guide with C60A, G65A, G69T, C73T, C75A, T77G, A81C, G83T, G85A
modifications: listed as DNA, chemistry not fully specified
B41: cr712 (nucleic acid)
guide: B1 guide with G24C, G65A, T77G, A81C
modifications: listed as DNA, chemistry not fully specified

Tested on: K562 CRISPRi cells
Assay: Constant region variant library pooled growth screen, K562
Assay type: cell-based, human
Conditions: sgRNA constant region variants; activity relative to the original, un-modified constant region cr995
Procedure, shortened: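 Relative activity expresses each targeting sequence:constant region pair's phenotype over that of the unmodified constant region. Pooled growth screen ran in K562 CRISPRi cells in duplicate spinner-flask replicates, with puromycin selection and 4–8 days' growth at >2000× coverage; library paired variants with 36 targeting sequences.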

| Molecule | Mean relative activity |
| --- | --- |
| B1 | 0.7949 |
| B2 | 0.7299 |
| B3 | 0.7774 |
| B4 | 0.7779 |
| B5 | 0.7927 |
| B6 | 0.7504 |
| B7 | 0.751 |
| B8 | 0.7141 |
| B9 | 0.7667 |
| B10 | 0.7791 |
| B11 | 0.7542 |
| B12 | 0.7698 |
| B13 | 0.7625 |
| B14 | 0.7174 |
| B15 | 0.7636 |
| B16 | 0.7679 |
| B17 | 0.7368 |
| B18 | 0.7902 |
| B19 | 0.7672 |
| B20 | 0.7265 |
| B21 | 0.7679 |

| Molecule | Mean relative activity |
| --- | --- |
| B22 | 0.7238 |
| B23 | 1.055 |
| B24 | 0.7395 |
| B25 | 0.743 |
| B26 | 0.7264 |
| B27 | 0.7459 |
| B28 | 0.7513 |
| B29 | 1.055 |
| B30 | 0.7254 |
| B31 | 0.7506 |
| B32 | 1.054 |
| B33 | 0.719 |
| B34 | 1.054 |
| B35 | 0.7179 |
| B36 | 0.7254 |
| B37 | 0.7574 |
| B38 | 0.7776 |
| B39 | 0.7502 |
| B40 | 0.7512 |
| B41 | 0.7744 |

Reference: patent US20220259593A1, “CONTROL OF MAMMALIAN GENE DOSAGE USING CRISPR” (The Regents of the University of California, priority 2019, published 2022)
